Patent US20260191981A1 (ARROWHEAD PHARMACEUTICALS, published 2026)
Where a chain is given by its changes, count along the chain named.

B1: Fab0061-siRNA conjugate (Fab, V domains shown)
VH: EVQLVESGGGLVQPGGSLRLSCATSGYTFTSYWMHWVRQAPGKGLEWVAEINPTNGRVNYIEKFKSRITLSVDKSKSTVYLQMNSLRAEDTAVYYCARGTRAYHYWGQGTLVTVSS
VL: DIQLTQSPSSLSASVGDRVTITCRASDGLYSNLAWYQQKPGKAPKLLIYDATKLASGVPSRFSGSGSGTDYTLTISSLQPEDFATYYCQHFWGTPLTFGQGTKVEIKR
modifications: siRNA-linker on a reduced cysteine; chain and residue not stated
notes: also called Fab0061 (BLI conjugate columns)
B2: Fab0060-siRNA conjugate (Fab, V domains shown)
VH: B1 VH with M34V, V58T
VL: B1 VL
modifications: siRNA-linker on a reduced cysteine; chain and residue not stated
notes: also called Fab0060 (BLI conjugate columns)
B3: Fab0062-siRNA conjugate (Fab, V domains shown)
VH: B1 VH
VL: B1 VL with T52F, K53N
modifications: siRNA-linker on a reduced cysteine; chain and residue not stated
notes: also called Fab0062 (BLI conjugate columns)
B4: Fab0063-siRNA conjugate (Fab, V domains shown)
VH: B1 VH
VL: B1 VL with K53R
modifications: siRNA-linker on a reduced cysteine; chain and residue not stated
notes: also called Fab0063 (BLI conjugate columns)
B5: Fab0064-siRNA conjugate (Fab, V domains shown)
VH: B1 VH
VL: B1 VL with T52K, K53N
modifications: siRNA-linker on a reduced cysteine; chain and residue not stated
notes: also called Fab0064 (BLI conjugate columns)
B6: Fab0065-siRNA conjugate (Fab, V domains shown)
VH: B1 VH with M34V, V58S
VL: B1 VL with G28N, S31R
modifications: siRNA-linker on a reduced cysteine; chain and residue not stated
notes: also called Fab0065 (BLI conjugate columns)
B7: Fab0066-siRNA conjugate (Fab, V domains shown)
VH: B1 VH with M34V
VL: B1 VL with T52F, K53N
modifications: siRNA-linker on a reduced cysteine; chain and residue not stated
notes: also called Fab0066 (BLI conjugate columns)
B8: Fab0067-siRNA conjugate (Fab, V domains shown)
VH: B1 VH with M34V, V58T
VL: B1 VL with G28N, S31R
modifications: siRNA-linker on a reduced cysteine; chain and residue not stated
notes: also called Fab0067 (BLI conjugate columns)
B9: Fab0068-siRNA conjugate (Fab, V domains shown)
VH: B1 VH with M34V
VL: B1 VL
modifications: siRNA-linker on a reduced cysteine; chain and residue not stated
notes: also called Fab0068 (BLI conjugate columns)
B10: Fab0069-siRNA conjugate (Fab, V domains shown)
VH: B1 VH with M34V, V58S
VL: B1 VL
modifications: siRNA-linker on a reduced cysteine; chain and residue not stated
notes: also called Fab0069 (BLI conjugate columns)
B11: Fab0070-siRNA conjugate (Fab, V domains shown)
VH: B1 VH with Y27F, V58T
VL: B1 VL with G28K, K53L
modifications: siRNA-linker on a reduced cysteine; chain and residue not stated
notes: also called Fab0070 (BLI conjugate columns)
B12: Fab0071-siRNA conjugate (Fab, V domains shown)
VH: B1 VH with T30N, V58T
VL: B1 VL with T52R, K53N
modifications: siRNA-linker on a reduced cysteine; chain and residue not stated
notes: also called Fab0071 (BLI conjugate columns)
B13: Fab0072-siRNA conjugate (Fab, V domains shown)
VH: B1 VH with T30N, V58F
VL: B1 VL with G28N, S31R, T52R, K53N
modifications: siRNA-linker on a reduced cysteine; chain and residue not stated
notes: also called Fab0072 (BLI conjugate columns)
B14: Fab0073-siRNA conjugate (Fab, V domains shown)
VH: B1 VH with T30K, V58T
VL: B1 VL with G28N, S31R
modifications: siRNA-linker on a reduced cysteine; chain and residue not stated
notes: also called Fab0073 (BLI conjugate columns)
B15: Fab0074-siRNA conjugate (Fab, V domains shown)
VH: B1 VH with T30K, V58T
VL: B1 VL with T52K, K53N
modifications: siRNA-linker on a reduced cysteine; chain and residue not stated
notes: also called Fab0074 (BLI conjugate columns)
B16: Fab0002-siRNA conjugate (Fab, V domains shown)
VH: EVQLVQSGAEVKKPGASVKVSCKASGYTFTSYWMHWVRQAPGQRLEWIGEINPTNGRTNYIEKFKSRATLTVDKSASTAYMELSSLRSEDTAVYYCARGTRAYHYWGQGTMVTVSS
VL: B1 VL with L4M, G28N, A43S, I48V, K53N, S56D
modifications: siRNA-linker on a reduced cysteine; chain and residue not stated
notes: also called Fab0002 (BLI conjugate columns)

Each binder was assayed against T1, biotinylated cTfR1 (Acro Bio p/n TFR-C8249) (cynomolgus monkey, UniProt H9EXL1 89-760 (rhesus entry), biotinylated; site not stated) (assay: BLI, Octet RH16, biotinylated TfR1 on streptavidin sensor; Fab-siRNA conjugate).
T1 construct: Bought reagent of the BLI assay
Description: Samples were analyzed via Bio-Layer Interferometry (BLI) to determine kinetics against cynomolgus monkey transferrin receptor 1 (cTfR1). Briefly, an Octet RH16 (Sartorius) was used for BLI measurements using streptavidin biosensors (Sartorius p/n 18-5019) to irreversibly immobilize biotinylated cTfR1 (Acro Bio p/n TFR-C8249). […] Sample diluent was prepared in house and is composed of 10 mM PBS pH 7.4 (150 mM NaCl), 0.01% BSA, 0.002% Tween 20, and 0.01% kathon. A 96-well plate was used for analysis, filled with required samples solutions and a row of 10 μg/mL cTfR1 for loading of the streptavidin sensors. For each sample, one well was reserved for a reference sensor control (non-specific binding evaluation with no cTfR1 on surface in highest sample concentration) and a sample reference (buffer only on a cTfR1 loaded sample). One well was also reserved for a second replicate of one of the five concentrations to evaluate sensor and method variability. Eight channels were used for the highest sensitivity offered by the Octet RH16. For each assay performed, the steps were as follows: a sensor check for baseline evaluation of sensor alone in buffer was performed for 30 seconds, followed by loading of the cTfR1 for 60 seconds, then a baseline check for 90 seconds to verify stability of cTfR1 immobilized to sensor surface, then sample association for 180 seconds, and finally sample dissociation for 300 seconds. A shake speed of 1000 was used for all steps. Sample results were analyzed in Octet Analysis software.

T1 sequence (chain, as listed by the source): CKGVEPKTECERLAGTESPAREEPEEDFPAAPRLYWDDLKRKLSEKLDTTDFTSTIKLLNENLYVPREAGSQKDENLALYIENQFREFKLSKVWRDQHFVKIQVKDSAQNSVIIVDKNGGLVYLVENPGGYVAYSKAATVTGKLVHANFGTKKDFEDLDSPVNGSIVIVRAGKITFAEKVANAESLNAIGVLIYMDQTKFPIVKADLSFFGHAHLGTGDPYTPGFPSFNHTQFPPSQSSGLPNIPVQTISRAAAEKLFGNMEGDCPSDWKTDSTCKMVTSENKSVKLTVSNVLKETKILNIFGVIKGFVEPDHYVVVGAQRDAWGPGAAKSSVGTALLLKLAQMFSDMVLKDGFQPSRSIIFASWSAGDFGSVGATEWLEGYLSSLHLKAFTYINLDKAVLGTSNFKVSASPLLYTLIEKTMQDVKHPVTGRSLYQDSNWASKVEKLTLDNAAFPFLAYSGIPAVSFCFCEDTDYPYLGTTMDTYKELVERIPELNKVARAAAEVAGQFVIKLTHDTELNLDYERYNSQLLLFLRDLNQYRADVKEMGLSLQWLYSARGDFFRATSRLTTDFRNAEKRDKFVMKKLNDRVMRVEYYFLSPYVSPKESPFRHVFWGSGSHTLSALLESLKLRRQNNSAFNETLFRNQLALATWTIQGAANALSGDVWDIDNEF

B1 and B2 are within 1.5-fold of each other in Kd: 6.85 nM for the first, 9.11 nM for the second.

B3 and B4 are within 1.5-fold of each other in Kd: 11 nM for the first, 8.37 nM for the second.

B5 and B6 are within 1.5-fold of each other in Kd: 5.96 nM for the first, 5.63 nM for the second.

First: B7
Second: B8
The Kd of the first is 2-fold higher: 10 nM for the first, 5.02 nM for the second. The second binds more tightly here.

B9 and B10 are within 1.5-fold of each other in Kd: 8.89 nM for the first, 9.58 nM for the second.

B11 and B12 are within 1.5-fold of each other in Kd: 16.9 nM for the first, 18.1 nM for the second.

B13 and B14 are within 1.5-fold of each other in Kd: 10.8 nM for the first, 9.23 nM for the second.

Compared with B15, B16 is 2.1-fold higher in Kd: 12.2 nM for the first, 25.1 nM for the second. The first binds more tightly here.

B1 and B2 are within 1.5-fold of each other in koff: 0.0017 s⁻¹ for the first, 0.00252 s⁻¹ for the second.

B3 and B4 are within 1.5-fold of each other in koff: 0.00263 s⁻¹ for the first, 0.0022 s⁻¹ for the second.

B5 and B6 are within 1.5-fold of each other in koff: 0.0019 s⁻¹ for the first, 0.0013 s⁻¹ for the second.

First: B7
Second: B8
The koff of the first is 1.8-fold higher: 0.00335 s⁻¹ for the first, 0.0019 s⁻¹ for the second.

B9 and B10 are within 1.5-fold of each other in koff: 0.00221 s⁻¹ for the first, 0.00245 s⁻¹ for the second.

B11 and B12 are within 1.5-fold of each other in koff: 0.00413 s⁻¹ for the first, 0.00429 s⁻¹ for the second.

B13 and B14 are within 1.5-fold of each other in koff: 0.00398 s⁻¹ for the first, 0.00321 s⁻¹ for the second.

Going from B15 to B16, the koff rises from 0.00321 s⁻¹ to 0.00732 s⁻¹ (2.3-fold).

B1 and B2 are within 1.5-fold of each other in kon: 248000 M⁻¹ s⁻¹ for the first, 276000 M⁻¹ s⁻¹ for the second.

B3 and B4 are within 1.5-fold of each other in kon: 238000 M⁻¹ s⁻¹ for the first, 263000 M⁻¹ s⁻¹ for the second.

B5 and B6 are within 1.5-fold of each other in kon: 319000 M⁻¹ s⁻¹ for the first, 231000 M⁻¹ s⁻¹ for the second.

B7 and B8 are within 1.5-fold of each other in kon: 334000 M⁻¹ s⁻¹ for the first, 378000 M⁻¹ s⁻¹ for the second.

B9 and B10 are within 1.5-fold of each other in kon: 249000 M⁻¹ s⁻¹ for the first, 256000 M⁻¹ s⁻¹ for the second.

B11 and B12 are within 1.5-fold of each other in kon: 244000 M⁻¹ s⁻¹ for the first, 234000 M⁻¹ s⁻¹ for the second.

B13 and B14 are within 1.5-fold of each other in kon: 368000 M⁻¹ s⁻¹ for the first, 348000 M⁻¹ s⁻¹ for the second.

B15 and B16 are within 1.5-fold of each other in kon: 264000 M⁻¹ s⁻¹ for the first, 292000 M⁻¹ s⁻¹ for the second.

What follows are binders tested against T2, biotinylated hTfR1 (Acro Bio p/n TFR-H82E5) (human, UniProt P02786 89-760, biotinylated; site not stated) in the same assay as above.
T2 construct: Bought reagent of the BLI assay
Description: Samples were analyzed via Bio-Layer Interferometry (BLI) to determine kinetics against human transferrin receptor 1 (hTfR1). Briefly, an Octet RH16 (Sartorius) was used for BLI measurements using streptavidin biosensors (Sartorius p/n 18-5019) to irreversibly immobilize biotinylated hTfR1 (Acro Bio p/n TFR-H82E5). […] Sample diluent was prepared in house and is composed of 10 mM PBS pH 7.4 (150 mM NaCl), 0.01% BSA, 0.002% Tween 20, and 0.01% kathon. A 96-well plate was used for analysis, filled with required samples solutions and a row of 10 μg/mL hTfR1 for loading of the streptavidin sensors. For each sample, one well was reserved for a reference sensor control (non-specific binding evaluation with no hTfR1 on surface in highest sample concentration) and a sample reference (buffer only on a hTfR1 loaded sample). One well was also reserved for a second replicate of one of the five concentrations to evaluate sensor and method variability. Eight channels were used for the highest sensitivity offered by the Octet RH16. For each assay performed, the steps were as follows: a sensor check for baseline evaluation of sensor alone in buffer was performed for 30 seconds, followed by loading of the cTfR1 for 60 seconds, then a baseline check for 90 seconds to verify stability of cTfR1 immobilized to sensor surface, then sample association for 180 seconds, and finally sample dissociation for 300 seconds. A shake speed of 1000 was used for all steps. Sample results are analyzed in Octet Analysis software.

T2 sequence (P02786 89-760 limits assumed): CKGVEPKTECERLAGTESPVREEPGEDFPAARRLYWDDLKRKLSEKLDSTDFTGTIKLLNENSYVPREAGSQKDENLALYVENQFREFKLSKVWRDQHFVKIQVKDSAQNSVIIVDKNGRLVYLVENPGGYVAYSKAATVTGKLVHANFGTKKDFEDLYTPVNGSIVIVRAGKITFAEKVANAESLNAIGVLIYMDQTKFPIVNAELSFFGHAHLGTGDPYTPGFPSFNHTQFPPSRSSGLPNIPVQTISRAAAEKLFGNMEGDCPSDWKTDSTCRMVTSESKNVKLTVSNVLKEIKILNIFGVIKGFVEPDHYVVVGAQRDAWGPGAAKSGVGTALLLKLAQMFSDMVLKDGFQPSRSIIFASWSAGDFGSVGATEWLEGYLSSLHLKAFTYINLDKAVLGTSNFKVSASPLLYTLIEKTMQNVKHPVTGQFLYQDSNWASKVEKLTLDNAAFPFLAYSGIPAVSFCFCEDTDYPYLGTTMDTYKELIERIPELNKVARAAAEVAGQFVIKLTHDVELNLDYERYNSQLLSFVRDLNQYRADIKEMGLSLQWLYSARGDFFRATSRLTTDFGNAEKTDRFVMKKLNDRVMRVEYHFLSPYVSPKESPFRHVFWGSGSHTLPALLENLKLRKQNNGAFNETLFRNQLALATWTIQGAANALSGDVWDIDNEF

First: B1
Second: B2
The Kd of the first is 1.9-fold lower: 1.9 nM for the first, 3.65 nM for the second. The first binds more tightly here.

Compared with B3, B4 is 1.6-fold lower in Kd: 4.47 nM for the first, 2.72 nM for the second.

Going from B5 to B6, the Kd rises from 1.44 nM to 2.64 nM (1.8-fold). The first binds more tightly here.

First: B7
Second: B8
The Kd of the first is 2.9-fold higher: 1.81 nM for the first, 0.623 nM for the second.

Going from B9 to B10, the Kd rises from 1.69 nM to 5.45 nM (3.2-fold).

B11 and B12 are within 1.5-fold of each other in Kd: 3.71 nM for the first, 2.67 nM for the second.

Compared with B13, B14 is 2.3-fold higher in Kd: 0.898 nM for the first, 2.1 nM for the second.

First: B15
Second: B16
The Kd of the first is 6-fold lower: 2.78 nM for the first, 16.7 nM for the second. The first binds more tightly here.

Going from B1 to B2, the koff rises from 0.000527 s⁻¹ to 0.00109 s⁻¹ (2.1-fold).

Compared with B3, B4 is 1.6-fold lower in koff: 0.00123 s⁻¹ for the first, 0.000775 s⁻¹ for the second.

Compared with B5, B6 is 2.1-fold higher in koff: 0.000393 s⁻¹ for the first, 0.00082 s⁻¹ for the second.

First: B7
Second: B8
The koff of the first is 2.8-fold higher: 0.000469 s⁻¹ for the first, 0.000167 s⁻¹ for the second.

Compared with B9, B10 is 3.8-fold higher in koff: 0.000432 s⁻¹ for the first, 0.00164 s⁻¹ for the second.

B11 and B12 are within 1.5-fold of each other in koff: 0.000974 s⁻¹ for the first, 0.000716 s⁻¹ for the second.

Compared with B13, B14 is 2.3-fold higher in koff: 0.000262 s⁻¹ for the first, 0.000615 s⁻¹ for the second.

Going from B15 to B16, the koff rises from 0.000793 s⁻¹ to 0.00349 s⁻¹ (4.4-fold).

B1 and B2 are within 1.5-fold of each other in kon: 278000 M⁻¹ s⁻¹ for the first, 298000 M⁻¹ s⁻¹ for the second.

B3 and B4 are within 1.5-fold of each other in kon: 275000 M⁻¹ s⁻¹ for the first, 285000 M⁻¹ s⁻¹ for the second.

B5 and B6 are within 1.5-fold of each other in kon: 273000 M⁻¹ s⁻¹ for the first, 310000 M⁻¹ s⁻¹ for the second.

B7 and B8 are within 1.5-fold of each other in kon: 259000 M⁻¹ s⁻¹ for the first, 268000 M⁻¹ s⁻¹ for the second.

B9 and B10 are within 1.5-fold of each other in kon: 256000 M⁻¹ s⁻¹ for the first, 301000 M⁻¹ s⁻¹ for the second.

B11 and B12 are within 1.5-fold of each other in kon: 263000 M⁻¹ s⁻¹ for the first, 268000 M⁻¹ s⁻¹ for the second.

B13 and B14 are the same in kon: 292000 M⁻¹ s⁻¹ for the first, 292000 M⁻¹ s⁻¹ for the second.

B15 and B16 are within 1.5-fold of each other in kon: 286000 M⁻¹ s⁻¹ for the first, 209000 M⁻¹ s⁻¹ for the second.
